Measured values from the supplement of paper PMC10065799, “High-throughput profiling of sequence recognition by tyrosine kinases and SH2 domains using bacterial peptide display” (eLife, 2023).

Tests used:
[1] = biological target: SHP2-C SH2; assay: SH2 binding enrichment of the phosphorylated peptide, bacterial display (enrichment ratio); higher = better substrate or ligand; peptides without Tyr show the background
[2] = biological target: c-Src SH2; assay: as above
[3] = biological target: Grb2 SH2 (UniProt P62993); assay: as above
Chain of Grb2 SH2 (P62993 whole entry, looked up): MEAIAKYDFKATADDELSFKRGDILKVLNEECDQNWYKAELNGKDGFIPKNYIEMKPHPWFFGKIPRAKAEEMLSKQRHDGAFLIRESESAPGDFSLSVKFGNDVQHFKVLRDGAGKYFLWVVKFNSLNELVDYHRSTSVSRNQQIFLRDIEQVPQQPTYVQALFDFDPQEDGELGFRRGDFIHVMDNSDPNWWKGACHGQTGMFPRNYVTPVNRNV

[4] = biological target: Fyn (UniProt P06241); assay: phosphorylation enrichment, bacterial display (enrichment ratio); higher = better substrate or ligand; peptides without Tyr show the background
[5] = biological target: EPHB2 (UniProt P29323); assay: as above
Chain of EPHB2 (P29323 whole entry, looked up): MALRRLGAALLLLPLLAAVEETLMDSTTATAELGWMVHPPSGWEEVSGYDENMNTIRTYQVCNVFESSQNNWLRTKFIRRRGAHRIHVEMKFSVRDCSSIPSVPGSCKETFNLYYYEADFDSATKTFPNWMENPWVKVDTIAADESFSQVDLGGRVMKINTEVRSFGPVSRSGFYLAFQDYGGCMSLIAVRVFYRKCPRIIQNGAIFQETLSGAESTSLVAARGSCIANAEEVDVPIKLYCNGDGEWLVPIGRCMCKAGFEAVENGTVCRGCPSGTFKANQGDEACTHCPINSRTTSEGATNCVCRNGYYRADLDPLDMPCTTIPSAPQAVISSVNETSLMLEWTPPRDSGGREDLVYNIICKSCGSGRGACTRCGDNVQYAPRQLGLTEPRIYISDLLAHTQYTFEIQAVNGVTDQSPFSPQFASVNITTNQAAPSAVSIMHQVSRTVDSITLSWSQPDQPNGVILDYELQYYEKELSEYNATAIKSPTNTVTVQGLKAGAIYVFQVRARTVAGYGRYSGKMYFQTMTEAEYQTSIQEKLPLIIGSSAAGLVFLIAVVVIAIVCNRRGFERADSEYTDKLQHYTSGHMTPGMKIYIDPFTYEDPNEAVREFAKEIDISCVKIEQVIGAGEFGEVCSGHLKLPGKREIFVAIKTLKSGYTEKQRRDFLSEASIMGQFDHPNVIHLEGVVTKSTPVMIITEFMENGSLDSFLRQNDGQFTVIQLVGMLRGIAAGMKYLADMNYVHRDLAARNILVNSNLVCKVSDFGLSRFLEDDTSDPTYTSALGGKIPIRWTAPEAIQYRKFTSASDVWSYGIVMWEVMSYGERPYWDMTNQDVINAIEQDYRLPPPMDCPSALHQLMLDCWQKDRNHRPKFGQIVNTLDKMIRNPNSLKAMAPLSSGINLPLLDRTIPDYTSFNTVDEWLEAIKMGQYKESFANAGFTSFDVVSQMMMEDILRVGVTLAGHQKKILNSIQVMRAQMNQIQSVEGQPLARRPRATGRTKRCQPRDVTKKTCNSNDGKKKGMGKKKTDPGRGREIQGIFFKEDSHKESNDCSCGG

[6] = biological target: FGFR3 (UniProt P22607); assay: as above
Chain of FGFR3 (P22607 whole entry, looked up): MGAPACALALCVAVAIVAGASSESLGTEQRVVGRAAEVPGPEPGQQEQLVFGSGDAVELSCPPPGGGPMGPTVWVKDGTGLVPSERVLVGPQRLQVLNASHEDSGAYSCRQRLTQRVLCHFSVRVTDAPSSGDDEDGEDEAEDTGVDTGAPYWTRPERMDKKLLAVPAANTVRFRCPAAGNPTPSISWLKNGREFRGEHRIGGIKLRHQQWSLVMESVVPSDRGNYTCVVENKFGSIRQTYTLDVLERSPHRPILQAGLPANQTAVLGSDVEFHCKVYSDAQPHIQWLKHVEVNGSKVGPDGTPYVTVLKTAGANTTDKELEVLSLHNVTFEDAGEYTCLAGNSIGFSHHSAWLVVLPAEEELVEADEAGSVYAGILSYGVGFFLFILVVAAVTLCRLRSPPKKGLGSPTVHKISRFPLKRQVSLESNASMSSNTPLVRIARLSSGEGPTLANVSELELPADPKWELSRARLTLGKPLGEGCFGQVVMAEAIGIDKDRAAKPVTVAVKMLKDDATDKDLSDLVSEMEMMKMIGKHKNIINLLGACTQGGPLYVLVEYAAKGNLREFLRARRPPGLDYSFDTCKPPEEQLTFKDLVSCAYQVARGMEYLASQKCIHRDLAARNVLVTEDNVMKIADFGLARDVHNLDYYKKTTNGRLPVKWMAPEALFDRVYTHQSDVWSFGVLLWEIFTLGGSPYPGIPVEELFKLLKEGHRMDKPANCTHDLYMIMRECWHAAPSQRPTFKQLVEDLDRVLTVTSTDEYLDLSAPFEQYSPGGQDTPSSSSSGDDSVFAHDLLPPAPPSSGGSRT

[7] = biological target: Fes (UniProt P07332); assay: as above
Chain of Fes (P07332 whole entry, looked up): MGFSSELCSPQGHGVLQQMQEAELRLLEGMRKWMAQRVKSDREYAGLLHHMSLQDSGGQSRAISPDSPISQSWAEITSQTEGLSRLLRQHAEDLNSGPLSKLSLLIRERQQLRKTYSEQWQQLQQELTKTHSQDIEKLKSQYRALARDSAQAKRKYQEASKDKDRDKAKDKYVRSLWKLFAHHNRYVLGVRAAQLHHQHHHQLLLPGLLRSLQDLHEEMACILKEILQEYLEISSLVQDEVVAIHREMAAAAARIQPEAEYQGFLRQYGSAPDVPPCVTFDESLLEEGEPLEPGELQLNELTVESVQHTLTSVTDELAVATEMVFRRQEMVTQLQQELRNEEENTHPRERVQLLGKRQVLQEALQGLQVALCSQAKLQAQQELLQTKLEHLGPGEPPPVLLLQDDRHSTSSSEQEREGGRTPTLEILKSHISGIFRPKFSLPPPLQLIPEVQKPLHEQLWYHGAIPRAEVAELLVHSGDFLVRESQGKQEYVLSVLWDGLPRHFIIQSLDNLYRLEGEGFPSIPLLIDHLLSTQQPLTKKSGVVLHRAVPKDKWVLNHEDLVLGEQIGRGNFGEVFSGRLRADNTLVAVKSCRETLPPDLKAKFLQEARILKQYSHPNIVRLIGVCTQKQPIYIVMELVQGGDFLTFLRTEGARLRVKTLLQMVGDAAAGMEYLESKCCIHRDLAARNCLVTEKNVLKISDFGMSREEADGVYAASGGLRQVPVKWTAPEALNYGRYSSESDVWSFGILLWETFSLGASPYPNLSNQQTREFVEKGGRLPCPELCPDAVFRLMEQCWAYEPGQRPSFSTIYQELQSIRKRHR

[8] = test system: c-Abl (mouse); assay: as above
[9] = biological target: EPHB1 (UniProt P54762); assay: as above
Chain of EPHB1 (P54762 whole entry, looked up): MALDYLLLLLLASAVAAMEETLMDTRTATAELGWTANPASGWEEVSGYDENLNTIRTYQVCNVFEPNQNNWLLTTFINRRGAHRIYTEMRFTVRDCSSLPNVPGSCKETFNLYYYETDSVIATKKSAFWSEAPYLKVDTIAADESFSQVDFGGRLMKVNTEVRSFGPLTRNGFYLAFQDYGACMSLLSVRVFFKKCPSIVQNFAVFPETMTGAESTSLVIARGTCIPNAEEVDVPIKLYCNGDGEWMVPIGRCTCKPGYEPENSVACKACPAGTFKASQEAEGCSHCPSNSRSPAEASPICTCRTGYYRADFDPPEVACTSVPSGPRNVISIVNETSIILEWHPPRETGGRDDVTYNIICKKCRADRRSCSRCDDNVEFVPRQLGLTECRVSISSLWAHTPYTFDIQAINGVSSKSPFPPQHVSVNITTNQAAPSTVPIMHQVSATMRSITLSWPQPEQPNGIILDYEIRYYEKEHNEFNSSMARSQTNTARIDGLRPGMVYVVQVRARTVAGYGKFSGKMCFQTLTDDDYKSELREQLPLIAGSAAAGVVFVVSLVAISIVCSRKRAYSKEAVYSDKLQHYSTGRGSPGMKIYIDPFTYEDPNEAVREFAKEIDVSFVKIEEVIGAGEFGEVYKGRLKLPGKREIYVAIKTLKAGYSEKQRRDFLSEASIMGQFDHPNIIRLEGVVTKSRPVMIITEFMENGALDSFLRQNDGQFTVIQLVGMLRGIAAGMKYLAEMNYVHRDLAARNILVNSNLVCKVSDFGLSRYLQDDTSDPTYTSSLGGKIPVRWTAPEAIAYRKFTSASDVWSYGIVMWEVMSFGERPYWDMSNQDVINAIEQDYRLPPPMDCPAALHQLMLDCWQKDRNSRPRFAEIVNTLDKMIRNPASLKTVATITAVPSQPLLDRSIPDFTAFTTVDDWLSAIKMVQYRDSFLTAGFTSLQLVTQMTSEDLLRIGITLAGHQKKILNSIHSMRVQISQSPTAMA

[10] = biological target: MERTK (UniProt Q12866); assay: as above
[11] = test system: AncSZ; assay: as above
[12] = biological target: Hck (UniProt P08631); assay: as above
[13] = biological target: FGFR1 (UniProt P11362); assay: as above
[14] = test system: c-Src; assay: as above
[15] = test system: Fer (mouse); assay: as above
[16] = biological target: Jak2 (UniProt O60674); assay: as above
Chain of Jak2 (O60674 whole entry, looked up, the tested form may be a part): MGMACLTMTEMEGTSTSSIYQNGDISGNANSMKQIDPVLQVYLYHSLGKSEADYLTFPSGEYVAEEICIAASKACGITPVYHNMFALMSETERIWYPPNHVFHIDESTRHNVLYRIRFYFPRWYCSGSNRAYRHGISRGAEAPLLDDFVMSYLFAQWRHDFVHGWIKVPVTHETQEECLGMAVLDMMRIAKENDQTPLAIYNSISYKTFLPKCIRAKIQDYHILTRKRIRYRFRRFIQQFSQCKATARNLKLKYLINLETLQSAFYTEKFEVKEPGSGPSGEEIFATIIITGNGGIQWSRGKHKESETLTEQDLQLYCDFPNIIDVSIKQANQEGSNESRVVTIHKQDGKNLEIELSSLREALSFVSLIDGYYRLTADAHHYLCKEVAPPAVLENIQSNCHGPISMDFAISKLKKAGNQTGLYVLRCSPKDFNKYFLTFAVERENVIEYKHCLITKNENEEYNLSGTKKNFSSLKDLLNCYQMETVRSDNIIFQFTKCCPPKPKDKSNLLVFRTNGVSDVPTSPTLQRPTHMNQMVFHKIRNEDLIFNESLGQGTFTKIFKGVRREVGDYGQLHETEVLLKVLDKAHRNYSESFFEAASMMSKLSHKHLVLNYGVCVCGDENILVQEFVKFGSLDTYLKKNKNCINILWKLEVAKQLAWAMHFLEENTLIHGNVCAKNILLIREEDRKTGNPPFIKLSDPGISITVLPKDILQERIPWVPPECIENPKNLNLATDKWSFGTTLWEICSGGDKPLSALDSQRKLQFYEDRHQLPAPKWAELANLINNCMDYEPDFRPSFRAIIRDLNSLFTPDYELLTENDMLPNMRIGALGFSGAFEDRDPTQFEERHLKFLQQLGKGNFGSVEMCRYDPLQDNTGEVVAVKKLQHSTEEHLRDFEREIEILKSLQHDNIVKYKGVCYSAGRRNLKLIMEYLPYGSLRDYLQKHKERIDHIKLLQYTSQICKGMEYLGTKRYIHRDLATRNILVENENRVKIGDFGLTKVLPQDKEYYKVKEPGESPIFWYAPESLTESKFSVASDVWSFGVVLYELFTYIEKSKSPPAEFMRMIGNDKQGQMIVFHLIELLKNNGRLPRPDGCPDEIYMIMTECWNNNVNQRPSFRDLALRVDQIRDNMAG
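For SH2 binding enrichment of the phosphorylated peptide, bacterial display in this document: peptide library displayed on the E. coli surface as eCPX fusions, selected cells deep-sequenced, score is each peptide's frequency after selection divided by its frequency in the input.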
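For phosphorylation enrichment, bacterial display in this document: 11-residue human phosphosite peptides and single-mutation variants displayed on the E. coli surface, counted by deep sequencing, each peptide's frequency after selection divided by its frequency in the unselected input library; frequency after pTyr selection over input frequency; kinase dosed for 20-30% of maximal phosphorylation in three min.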

Sequence	SH2 binding enrichment [1]	SH2 binding enrichment [2]	SH2 binding enrichment [3]	phosphorylation enrichment [4]	phosphorylation enrichment [5]	phosphorylation enrichment [6]	phosphorylation enrichment [7]	phosphorylation enrichment [8]	phosphorylation enrichment [9]	phosphorylation enrichment [10]	phosphorylation enrichment [11]	phosphorylation enrichment [12]	phosphorylation enrichment [13]	phosphorylation enrichment [14]	phosphorylation enrichment [15]	phosphorylation enrichment [16]
TLMNAYSSRCH [KIF11_Y231_S235C]	0.726	0.581	0.943	0.571	0.553	0.637	0.836	0.738	0.602	0.448	1	0.496	0.492	0.471	0.535	0.776
TLQSMYGCDVG [HLA-B_Y123]	0.812	0.559	1.08	0.552	0.71	0.667	0.979	0.639	0.598	0.406	0.935	0.525	0.497	0.661	0.612	0.843
TMEDSYRKQVV [KRAS_Y40_I36M]	0.48	0.356	0.728	0.273	0.367	0.595	0.774	0.594	0.556	0.411	0.69	0.425	0.366	0.38	0.403	0.663
TPIYPYLLPKS [PLD2_Y580_T577I]	0.855	1.17	0.943	0.435	0.559	0.698	0.776	0.65	0.578	1.8	0.837	0.547	0.812	0.624	0.426	1.59
TRDTDYQMTKR [ADA_Y308_L304R]	0.447	0.544	0.821	0.377	0.446	0.7	0.646	0.501	0.383	0.344	0.639	0.373	0.394	0.31	0.359	0.525
TRNVRYLTLDI [AKR1C2_Y305_N300T]	6.49	1.73	0.985	0.407	0.521	0.634	0.887	0.557	0.787	0.372	0.633	0.487	0.421	0.384	0.429	0.684
TRSFKYLLLSM [NF1_Y491_YF]	1.21	1.05	1.05	0.386	0.51	0.548	1.07	0.706	0.663	0.399	1.12	0.44	0.43	0.426	0.38	0.977
TSAEGYQDVRD [ABLIM1_Y439_P434T]	0.779	4.85	0.909	0.679	0.774	0.659	1.36	0.766	0.73	0.517	1.17	0.691	0.77	0.602	0.551	1.16
TSFSGYRCHRH [NKAPL_Y94_Y96C_YF]	0.901	0.661	1.01	0.419	0.486	0.45	0.727	0.562	0.576	0.469	0.703	0.469	0.552	0.414	0.464	0.718
TSKLNYLDPRI [TOP1_Y723]	1.09	0.554	0.813	0.371	1.7	0.585	0.599	0.407	4.39	0.359	0.534	0.3	0.919	0.405	0.241	0.506
TTANRYLKVSD [MYOM2_Y871]	0.731	0.643	1.2	0.404	0.432	0.41	0.641	0.526	0.38	0.409	0.546	0.607	0.453	0.486	0.484	0.492
TTIVSYRASQP [MKI67_Y1737_K1734I]	0.74	0.532	0.688	0.481	0.305	0.477	0.663	0.654	0.454	0.438	0.591	0.481	0.441	0.539	0.457	0.6
TTPGPHRSIYF [MPG_Y71_Y71H]	0.484	0.503	0.71	0.359	0.444	0.526	0.577	0.538	0.355	0.479	0.569	0.411	0.579	0.458	0.396	0.357
TVFENYVADIE [RHOA_Y42]	0.618	0.541	0.798	0.58	0.664	0.925	1.15	0.861	0.647	0.631	1.42	0.588	0.642	0.521	0.513	1.46
TVLEPYTDPFF [ZC3H18_Y367_A368T_YF]	0.649	1.98	0.791	0.535	0.429	0.909	1.09	0.685	0.463	0.519	1.25	0.501	1.29	0.514	0.438	1.09
TYTVSYLPDMS [FLNC_Y1602]	0.623	0.375	0.792	0.568	0.705	0.656	0.874	0.55	0.528	0.733	1.05	0.582	0.512	0.561	0.491	0.903
VATRWYRSPEP [CDKL5_Y177_L182P]	0.629	0.422	0.796	0.525	0.537	0.523	0.719	0.397	0.55	0.421	0.638	0.431	0.482	0.394	0.379	0.565
